According to the supplement of paper PMC7877785:
± gives the uncertainty stated by the source.

Assay: self-splicing fitness, log relative to wild type (ln ratio); higher = more splicing; Tetrahymena group I intron in knt gene, E. coli kanamycin selection, DiMSum; sequences stand for … in CUCUCU…GGAGGGAAAAGUUAUCAGGCAUGCACCUGGUAGCUAGUCUUUAAACCAAUAGAUUGCAUCGGUUUAAAAGGCAAGACCGUCAAAUUGCGGGAAAGGGGUCAACAGCCGUUCAGUACCAAGUCUCAGGGGAAACUUUGAGAUGGCCUUGCAAAGGGUAUGGUAAUAAGCUGACGGACAUGGUCCUAACCACGCAGCCAAGUCCUAAGUCAACAGAUCUUCUGUUGAUAUGGAUGCAGUUCACAGACUAAAUGUCGGUCGGGGAAGAUGUAUUCUUCUCAUAAGAUAUAGUCGGACCUCUCCUUAAUGGGAGCUAGCGGAUGAAGUGAUGCAACACUGGAGCCGCUGGGAACUAAUUUGUAUGCGAAAGUAUAUUGAUUAGUUUUGGAGUACUCGUGGUCG
In short: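 Pooled colonies went to amplicon sequencing on an Illumina HiSeq 2500 after six replicate transformations. The plates were LB agar with 100 μg/mL carbenicillin, 50 μM IPTG and 0.2% rhamnose, with or without 25 μg/mL kanamycin, incubated overnight at 37°C or 30°C. The E. coli BL21(DE3) library had all eight P1ex-region intron nucleotides randomised, the intron placed in the knt kanamycin-resistance gene on pET-22b(+). DiMSum fitness is the error-weighted combination of replicate fold changes, kanamycin against none, normalised to wild type.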

| Sequence | self-splicing fitness (ln) (30 °C) | self-splicing fitness (ln) (37 °C) |
| --- | --- | --- |
| GGCCAGCAAUAUUACGACAG | -4.12 ± 0.25 | -3.08 ± 0.35 |
| GGCCAGCAAUAUUACGACCG | -1.21 ± 0.11 | -0.323 ± 0.14 |
| GGCCAGCAAUAUUACGAGCC | -2.63 ± 0.26 | -2.72 ± 0.29 |
| GGCCAGCAAUAUUACGAUCC | -0.826 ± 0.11 | 0.0889 ± 0.14 |
| GGCCAGCAAUAUUACGAUCU | -0.383 ± 0.06 | -0.133 ± 0.078 |
| GGCCAGCAAUAUUACGCAGG |  | -2.78 ± 0.22 |
| GGCCAGCAAUAUUACGCGCG | -0.959 ± 0.089 | -0.284 ± 0.12 |
| GGCCAGCAAUAUUACGCUAG | -3.21 ± 0.21 | -2.47 ± 0.3 |
| GGCCAGCAAUAUUACGCUCA | -0.637 ± 0.13 | -0.183 ± 0.13 |
| GGCCAGCAAUAUUACGCUCG | -2.5 ± 0.15 | -0.863 ± 0.13 |
| GGCCAGCAAUAUUACGCUUC | -1.98 ± 0.15 | -0.344 ± 0.11 |
| GGCCAGCAAUAUUACGGAGG | -2.39 ± 0.11 | -1.14 ± 0.14 |
| GGCCAGCAAUAUUACGGAUC | -0.753 ± 0.092 | -0.347 ± 0.11 |
| GGCCAGCAAUAUUACGGUCC | -3.11 ± 0.21 | -2.45 ± 0.37 |
| GGCCAGCAAUAUUACGUAGA | -1.59 ± 0.12 | -1.04 ± 0.15 |
| GGCCAGCAAUAUUACGUCCG | -3.34 ± 0.21 | -0.963 ± 0.14 |
| GGCCAGCAAUAUUACGUCUA | -2.43 ± 0.084 | -1.29 ± 0.078 |
| GGCCAGCAAUAUUACGUCUU | -0.247 ± 0.081 | -0.523 ± 0.082 |
| GGCCAGCAAUAUUACGUGGG | -4.31 ± 0.21 | -3.32 ± 0.26 |
| GGCCAGCAAUAUUACGUUGG | -3.91 ± 0.25 | -3.17 ± 0.25 |
| GGCCAGCAAUAUUACGUUUA | -2.69 ± 0.19 | -1.87 ± 0.16 |
| GGCGAGCAAUAUUACGAAUC | -1.03 ± 0.051 | -0.145 ± 0.067 |
| GGCGAGCAAUAUUACGAUAC | -2.02 ± 0.37 | -0.796 ± 0.35 |
| GGCGAGCAAUAUUACGAUCC | -0.772 ± 0.092 | -0.128 ± 0.12 |
| GGCGAGCAAUAUUACGAUGA | -2.08 ± 0.17 | -2.93 ± 0.33 |

| Sequence | self-splicing fitness (ln) (30 °C) | self-splicing fitness (ln) (37 °C) |
| --- | --- | --- |
| GGCGAGCAAUAUUACGCACA | -0.586 ± 0.082 | -0.225 ± 0.12 |
| GGCGAGCAAUAUUACGCAUC | -2.15 ± 0.15 | -1.05 ± 0.14 |
| GGCGAGCAAUAUUACGCAUU | -1.13 ± 0.11 | -0.998 ± 0.14 |
| GGCGAGCAAUAUUACGCCGG | -3.4 ± 0.35 | -0.739 ± 0.33 |
| GGCGAGCAAUAUUACGCCUG | -1.97 ± 0.43 |  |
| GGCGAGCAAUAUUACGCGUA | -1.09 ± 0.17 | -0.484 ± 0.15 |
| GGCGAGCAAUAUUACGGAUA |  | -2.08 ± 0.37 |
| GGCGAGCAAUAUUACGGCAC | -1.36 ± 0.13 | -0.093 ± 0.14 |
| GGCGAGCAAUAUUACGGCGC | -2.51 ± 0.29 | -2.52 ± 0.37 |
| GGCGAGCAAUAUUACGGGAG | -3.99 ± 0.34 | -1.33 ± 0.23 |
| GGCGAGCAAUAUUACGGGCA | -0.695 ± 0.15 | -0.194 ± 0.15 |
| GGCGAGCAAUAUUACGGGUG | -2.31 ± 0.12 | -1.96 ± 0.14 |
| GGCGAGCAAUAUUACGGUGU | -2.02 ± 0.25 | -1.55 ± 0.17 |
| GGCGAGCAAUAUUACGUCGG | -3.78 ± 0.33 | -2.13 ± 0.28 |
| GGCGAGCAAUAUUACGUGCU | -3.19 ± 0.34 |  |
| GGCGAGCAAUAUUACGUGUU | -2.5 ± 0.12 | -1.39 ± 0.14 |
| GGCUAGCAAUAUUACGAACG | -0.636 ± 0.066 | -0.168 ± 0.094 |
| GGCUAGCAAUAUUACGAAGU | -2.13 ± 0.26 | -1.56 ± 0.44 |
| GGCUAGCAAUAUUACGAAUC | 0.199 ± 0.18 | 0.239 ± 0.19 |
| GGCUAGCAAUAUUACGACAA | -0.713 ± 0.29 | -0.198 ± 0.33 |
| GGCUAGCAAUAUUACGACGA | -1.31 ± 0.15 | -1.08 ± 0.17 |
| GGCUAGCAAUAUUACGACUA | -0.758 ± 0.091 | -0.454 ± 0.089 |
| GGCUAGCAAUAUUACGACUU | -0.0915 ± 0.084 | -0.0421 ± 0.11 |
| GGCUAGCAAUAUUACGAGCU | -2.9 ± 0.47 | -1.65 ± 0.31 |
| GGCUAGCAAUAUUACGAGUU | -1.95 ± 0.11 | -0.414 ± 0.11 |

| Sequence | self-splicing fitness (ln) (30 °C) | self-splicing fitness (ln) (37 °C) |
| --- | --- | --- |
| GGCUAGCAAUAUUACGAUAC | -1.71 ± 0.16 | -0.0528 ± 0.14 |
| GGCUAGCAAUAUUACGCAAC | -1.61 ± 0.11 | -0.72 ± 0.12 |
| GGCUAGCAAUAUUACGCACA | -0.263 ± 0.12 | 0.1 ± 0.16 |
| GGCUAGCAAUAUUACGCCGG | -2.34 ± 0.21 | -2.27 ± 0.35 |
| GGCUAGCAAUAUUACGCGUC | -2.06 ± 0.24 | 0.0137 ± 0.14 |
| GGCUAGCAAUAUUACGCUAG | -2.5 ± 0.3 | -1.45 ± 0.34 |
| GGCUAGCAAUAUUACGGACG | 0.655 ± 0.093 | 0.211 ± 0.11 |
| GGCUAGCAAUAUUACGGGUC | -2.91 ± 0.28 | -2.26 ± 0.24 |
| GGCUAGCAAUAUUACGGUCU | -2.92 ± 0.44 | -0.649 ± 0.21 |
| GGCUAGCAAUAUUACGGUGC | -1.49 ± 0.19 | -0.767 ± 0.2 |
| GGCUAGCAAUAUUACGUCGC | -1.5 ± 0.28 | -0.438 ± 0.22 |
| GGCUAGCAAUAUUACGUGCG | -0.139 ± 0.099 | 0.371 ± 0.15 |
| GGCUAGCAAUAUUACGUUCG | -0.933 ± 0.097 | -0.427 ± 0.12 |
| GGGAAGCAAUAUUACGAAAG |  | -2.48 ± 0.41 |
| GGGAAGCAAUAUUACGAACU | -2.22 ± 0.26 | 1.13 ± 0.33 |
| GGGAAGCAAUAUUACGAGUC | -2.56 ± 0.17 | -1.36 ± 0.16 |
| GGGAAGCAAUAUUACGAUAU | -0.722 ± 0.15 | -0.709 ± 0.23 |
| GGGAAGCAAUAUUACGAUCC | -2.12 ± 0.22 | -1.11 ± 0.35 |
| GGGAAGCAAUAUUACGAUUC | -0.445 ± 0.14 | -0.851 ± 0.16 |
| GGGAAGCAAUAUUACGCAAC | -3.36 ± 0.17 | -1.03 ± 0.18 |
| GGGAAGCAAUAUUACGCAUA | -2.35 ± 0.18 | -1.25 ± 0.14 |
| GGGAAGCAAUAUUACGCCGA | -1.78 ± 0.17 | -0.238 ± 0.12 |
| GGGAAGCAAUAUUACGCUAC | -2.26 ± 0.3 | -1.84 ± 0.46 |
| GGGAAGCAAUAUUACGCUGU | -2.38 ± 0.14 | -1.45 ± 0.16 |
| GGGAAGCAAUAUUACGGAAA | -1.4 ± 0.32 | -1.41 ± 0.36 |

| Sequence | self-splicing fitness (ln) (30 °C) | self-splicing fitness (ln) (37 °C) |
| --- | --- | --- |
| GGGAAGCAAUAUUACGGGGU |  | -2.7 ± 0.34 |
| GGGAAGCAAUAUUACGGGUC | -2.67 ± 0.3 | -2.08 ± 0.33 |
| GGGAAGCAAUAUUACGGUGG | -3.18 ± 0.24 | -2 ± 0.24 |
| GGGAAGCAAUAUUACGUCUA | 0.132 ± 0.17 | -0.25 ± 0.18 |
| GGGAAGCAAUAUUACGUCUU | -0.577 ± 0.09 | -0.159 ± 0.13 |
| GGGAAGCAAUAUUACGUGGC | -2.16 ± 0.36 | -2.73 ± 0.31 |
| GGGCAGCAAUAUUACGAAAU | -1.42 ± 0.25 | -1.24 ± 0.22 |
| GGGCAGCAAUAUUACGAAGC | -1.64 ± 0.077 | -0.939 ± 0.09 |
| GGGCAGCAAUAUUACGAAUA |  | 0.108 ± 0.17 |
| GGGCAGCAAUAUUACGACCG | -0.512 ± 0.14 | 0.369 ± 0.17 |
| GGGCAGCAAUAUUACGACGA | -0.804 ± 0.11 | -0.442 ± 0.12 |
| GGGCAGCAAUAUUACGACGC | 0.36 ± 0.13 | -0.0449 ± 0.18 |
| GGGCAGCAAUAUUACGAGGC | -2.26 ± 0.29 | -2.9 ± 0.37 |
| GGGCAGCAAUAUUACGAUAA | -2.67 ± 0.21 | -1.75 ± 0.18 |
| GGGCAGCAAUAUUACGAUCC | -1.89 ± 0.42 | -0.374 ± 0.37 |
| GGGCAGCAAUAUUACGCAGA | -1.43 ± 0.095 | -0.514 ± 0.1 |
| GGGCAGCAAUAUUACGCAUG | -1.36 ± 0.1 | -0.482 ± 0.12 |
| GGGCAGCAAUAUUACGCCUU | -3.55 ± 0.29 | -2.13 ± 0.22 |
| GGGCAGCAAUAUUACGCGGU | -3.4 ± 0.19 | -1.77 ± 0.27 |
| GGGCAGCAAUAUUACGCUCU | -3.55 ± 0.44 |  |
| GGGCAGCAAUAUUACGGAAA | -2.77 ± 0.21 | -2.26 ± 0.19 |
| GGGCAGCAAUAUUACGGCUG | -2.27 ± 0.15 | -1.8 ± 0.18 |
